Reference: article PMC314469, “Protein Interaction Networks by Proteome Peptide Scanning” (PLoS Biology, 2004)

T1: Myo5 SH3 (MYO5_YEAST), Q04439
T1 chain: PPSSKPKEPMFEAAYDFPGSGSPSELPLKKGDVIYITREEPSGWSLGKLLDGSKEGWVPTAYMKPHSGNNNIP


Biological target: T1, Myo5 SH3 (MYO5_YEAST), Q04439
Assay: SPOT array

normalised SPOT signal, Boehringer light units (BLU); mean over the file's lines of this peptide | Binder
143 | SLDNFYNPLGPEDR [YNR012W 89-102]
13000 | SAFPYVFPLPPWIP [YFL006W 181-194]
147 | SLISMETPEQPHQQ [YAL047C 546-559]
163 | REFEFIIPVFPVIS [YDL233W 197-210]
61.5 | SENYLVKPTIPGTT [YDL035C 918-931]
164 | SASTMAAPVHPQQQ [YMR002W 21-34]
176 | REASLDIPYKPIIA [YFL011W 32-45]
1430 | SPKKHVSPSRPPSV [YAL028W 272-285]
28.4 | SLSALVGPVIPHTI [YMR177W 252-265]
193 | SPRSLPTPILPSMS [YML083C 47-60]
127 | RLQKLDDPKSPYQS [YDL205C 162-175]
777 | RPSKFFHPPIPHIP [YOR235W 5-18]
274 | RLNSFAPPPNPYAT [YDL195W 847-860]
366 | SPFTFLFPFLPTII [YER017C 223-236]
276 | SPKKLASPRTPNAN [YKR077W 157-170]
7260 | SLTSLPPPPPPQFS [YPL014W 217-230]
209 | SFRKLASPSNPNFF [YMR036C 409-422]
845 | RLWLYAAPKRPKTF [YMR156C 129-142]
91.7 | SLAVYNIPLFPDDP [YLL002W 276-289]
287 | SFTRMPLPTPPIEG [YGL235W 82-95]

normalised SPOT signal, Boehringer light units (BLU); mean over the file's lines of this peptide | Binder
215 | SAYYLGLPVTPEDM [YOL057W 181-194]
442 | RLSLLRSPKAPDAH [YGL156W 915-928]
131 | SLQQFYNPESPIQP [YOR155C 390-403]
224 | QPTNFQYPPPPFGQ [YNL124W 379-392]
319 | RLTNFEVPSLPTFH [YIL037C 447-460]
183 | SPKFLNSPDLPERT [YDL225W 441-454]
441 | RLFDLVKPKNPKFS [YLR086W 763-776]
56.4 | SAENLIQPTAPIRD [YIR029W 44-57]
97.3 | SFRELWQPVDPSRE [YLR301W 124-137]
239 | SLFPLKTPISPGTS [YOR106W 114-127]
249 | SLVKFSSPMTPLLE [YHR072W 246-259]
272 | SENRLRTPLKPLVN [YGL021W 219-232]
76200 | QPQHLPPPPPPRAQ [YOR329C 661-674]
94.6 | SATGWLKPAVPIQW [YGL065C 374-387]
76.1 | SPNDHSDPSSPSNR [YNR014W 177-190]
168 | SPLSWSGPLTPPTF [YNL243W 594-607]
23.1 | SFDYLFHPFVPSTI [YPR039W 3-16]
208 | SFTPFNRPSDPSNG [YPL066W 70-83]
158 | RFHVFSEPILPSVA [YOR160W 693-706]
79.6 | SANNYPFPQQPNGM [YNL124W 356-369]

normalised SPOT signal, Boehringer light units (BLU); mean over the file's lines of this peptide | Binder
359 | SPKPFSKPQEPVKA [YCR088W 389-402]
99.7 | SFVHLTEPSQPLSD [YOR032C 362-375]
205 | SFVGFPKPLLPRNH [YHR082C 909-922]
50.5 | SELYYEGPETPTPS [YPL186C 118-131]
114 | REVDLPIPAQPGPP [YDR236C 34-47]
265 | RLLALFIPALPFII [YEL065W 193-206]
47400 | RPPSHSAPYIPRSS [YDR132C 184-197]
257 | SETSHHSPSAPFQR [YLL016W 216-229]
98.2 | RAAGMDVPIIPGIM [YGL125W 205-218]
110 | SELTFIAPTQPVST [YPL101W 254-267]
145 | REDAHEDPVSPKAG [YOL082W 127-140]
65.2 | SPSQYQYPSQPALS [YKL146W 143-156]
53.3 | SPSTHAAPVTPIIS [YNL027W 321-334]
317 | SPSDFNKPDLPELI [YER003C 229-242]
314 | SLLIHSLPRKPLLM [YGL104C 357-370]
241 | RPQWLSYPEQPLNS [YBL088C 912-925]
233 | SPRHYNVPSSPIAP [YIL101C 572-585]
152 | SPFSLFIPTIPATT [YNL043C 79-92]
